System: MS2 coat protein
Assay: apparent KD of MS2 coat protein; designed switch direction (-1 OFF switch, 1 ON switch): 1; higher = weaker reporter binding
Outline: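 Apparent KD, taken as the median over clusters for each design, was obtained by curve-fitting normalised cluster fluorescence. Designed RNA switches had been transcribed on Illumina chips by stalled E. coli RNA polymerase and titrated with SNAP-549-labelled MS2 coat protein, doubling from 0.7 or 1.5 nM to 3 µM.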

[1] = input ligand: microRNA oligo, concentration not stated
[2] = Eterna round: R95, input ligand: FMN 200 uM
[3] = Eterna round: R95, input ligand: microRNA oligo, concentration not stated
[4] = Eterna round: R95, input ligand: none

In the case of “UGCUUCGUGUAAGGAUAUGCAGCCGUUUCGGCUGCAGAAGGUACUAUAAUACAUGAGGAUCACCCAUGUCUCUCGCAUUGCGGG [salish99_SSng1_r04_303] (Eterna round: R96, puzzle: Same State NG 1)”, the “apparent KD of MS2 coat protein” value (input ligand: FMN 200 uM) is reported as 37.5 nM, the “apparent KD of MS2 coat protein” value [1] is reported as 40.3 nM and the “apparent KD of MS2 coat protein” value (input ligand: none) is reported as 52.2 nM.

In the case of “UGGAUCUAGGCUUGCCUGGGUCCAUGCUGACAUGAGGAUCACCCAUGUGCAUUCUAUAAGCUUUUUGUUUGUCAGCU (puzzle: Sensor for hsa-mir-208a)”, the “apparent KD of MS2 coat protein” value [2] is reported as 360 nM, the “apparent KD of MS2 coat protein” value [3] is reported as 25.1 nM and the “apparent KD of MS2 coat protein” value [4] is reported as 411 nM.

For “UGGCCAGCCUGUGCUGGGCUUUUGCAUGUACAUGAGGAUCACCCAUGUCGUGUUCAUGCUUUUUGCUCGUCUUUAAA [Photon Torp-03] (puzzle: Sensor for hsa-mir-208a)”, the “apparent KD of MS2 coat protein” value [2] was 49.5 nM, the “apparent KD of MS2 coat protein” value [3] was 16.3 nM and the “apparent KD of MS2 coat protein” value [4] was 55.8 nM.

In the case of “UGGCUCAGACGAGGAUAUGAUCAUGGCGCUUCGGCGCAUACAUGAGGAUCACCCAUGUAGGGUGAUCAGAAGGUGUCUGAGCCA [SSNG2/8-B2] (Eterna round: R96, puzzle: Same State NG 2)”, the “apparent KD of MS2 coat protein” value (input ligand: FMN 200 uM) is reported as 90.9 nM, the “apparent KD of MS2 coat protein” value [1] is reported as 578 nM and the “apparent KD of MS2 coat protein” value (input ligand: none) is reported as 1000 nM.

With “UGGCUCAGAGCAGGAUAUAUGUAAUAACAUGAGGAUCACCCAUGUGUCGAGCUUCGGCUCGACACAUAGAAGGGCUCUGAGCCA [SSNG2/2-B2] (Eterna round: R96, puzzle: Same State NG 2)” the “apparent KD of MS2 coat protein” value (input ligand: FMN 200 uM) was 13.3 nM, the “apparent KD of MS2 coat protein” value [1] was 29.2 nM and the “apparent KD of MS2 coat protein” value (input ligand: none) was 40.9 nM.

“UGGCUGAGUCGAGGAUAUGAUCUUCAUAUAUAUACAUGAGGAUCACCCAUGUAUAAUUACAUGGAUCAGAAGGCGACUCAGCCU [SSNG2/13-A2] (Eterna round: R96, puzzle: Same State NG 2)” was tested, and the “apparent KD of MS2 coat protein” value [1] was 23 nM.

For “UGGCUGGUGCUAGGAUAUACAUGAGGAAUCCUCGUAGAAGGAGCACGACAUGAGGAUCACCCAUGUAGCCGUCCGUAGACGGCU [salish99_SSNG1_r04_007] (Eterna round: R96, puzzle: Same State NG 1)”, the “apparent KD of MS2 coat protein” value (input ligand: FMN 200 uM) was 284 nM, the “apparent KD of MS2 coat protein” value [1] was 156 nM and the “apparent KD of MS2 coat protein” value (input ligand: none) was 112 nM.

For “UGGUACAUGGGAGGAUAUGGAGUGAAGACAUGAGGAUCACCCAUGUUAUAAAAGCCGAGAGGCAACUAGAAGGCCCAUGUACCU [JL SSNG1 3.93] (Eterna round: R96, puzzle: Same State NG 2)”, the “apparent KD of MS2 coat protein” value (input ligand: FMN 200 uM) was 14.3 nM, the “apparent KD of MS2 coat protein” value [1] was 37 nM and the “apparent KD of MS2 coat protein” value (input ligand: none) was 55 nM.

“UGGUACAUGGGAGGAUAUGGAGUGAUGACAUGAGGAUCACCCAUGUUAUAUAUGCCGAGAGGCAACUAGAAGGCCCAUGUACCU [JL SSNG1 3.97] (Eterna round: R96, puzzle: Same State NG 2)” was tested, and the “apparent KD of MS2 coat protein” value (input ligand: FMN 200 uM) was 19.4 nM, the “apparent KD of MS2 coat protein” value [1] was 121 nM and the “apparent KD of MS2 coat protein” value (input ligand: none) was 137 nM.

For “UGGUACAUGGGAGGAUAUGGAGUGAUGACAUGAGGAUCACCCAUGUUAUUUAUGCCGAGAGGCAACUAGAAGGCCCAUGUACCU [JL SSNG1 3.96] (Eterna round: R96, puzzle: Same State NG 2)”, the “apparent KD of MS2 coat protein” value (input ligand: FMN 200 uM) was 16.7 nM, the “apparent KD of MS2 coat protein” value [1] was 40.8 nM and the “apparent KD of MS2 coat protein” value (input ligand: none) was 52 nM.

For “UGGUCUCACUUAGGAUAUUAGCACCGAAAGAGCUAAGAAGGAGGUGAAACUCUCACAUGAGGAUCACCCAUGUACACCCUAGGG [Eternabot solution 3] (Eterna round: R96, puzzle: Same State NG 1)”, the “apparent KD of MS2 coat protein” value (input ligand: FMN 200 uM) was 162 nM, the “apparent KD of MS2 coat protein” value [1] was 503 nM and the “apparent KD of MS2 coat protein” value (input ligand: none) was 1080 nM.

“UGUACCUUCAUAGGAUAUCAUGCGAAAAUUGCGUGAGAAGGGUGAAUACUGUCUUUCUAAGAGUACAUGAGGAUCACCCAUGUA [SameState NG1 #62] (Eterna round: R96, puzzle: Same State NG 1)” was tested, and the “apparent KD of MS2 coat protein” value (input ligand: FMN 200 uM) was 181 nM, the “apparent KD of MS2 coat protein” value [1] was 133 nM and the “apparent KD of MS2 coat protein” value (input ligand: none) was 152 nM.

With “UGUCCAGCCUGAGCUGGACAAAAGCAUGUACAUGAGGAUCACCCAUGUUCAUGUACAAGCUUUUUGCUCGUCUUAAG [salish99_208a_r3_032] (puzzle: Sensor for hsa-mir-208a)” the “apparent KD of MS2 coat protein” value [2] was 547 nM, the “apparent KD of MS2 coat protein” value [3] was 13.9 nM and the “apparent KD of MS2 coat protein” value [4] was 533 nM.

With “UGUCCAGCCUGAGCUGGACAAAAGCAUGUACAUGAGGAUCACCCAUGUUCAUGUACAAGCUUUUUGCUCGUCUUAUC [salish99_208a_r3_057] (puzzle: Sensor for hsa-mir-208a)” the “apparent KD of MS2 coat protein” value [2] was 401 nM, the “apparent KD of MS2 coat protein” value [3] was 13.2 nM and the “apparent KD of MS2 coat protein” value [4] was 526 nM.

With “UGUCGUUGCAGAGGAUAUGGGAACUCGAUGCCGUAAGGUAUCAUAACAUGAGGAUCACCCAUGUCCCAGAAGGCUGCAGCAAGC [Leatve Mod] (Eterna round: R96, puzzle: Same State NG 2)” the “apparent KD of MS2 coat protein” value (input ligand: FMN 200 uM) was 29.7 nM, the “apparent KD of MS2 coat protein” value [1] was 94 nM and the “apparent KD of MS2 coat protein” value (input ligand: none) was 235 nM.

For “UGUUAACAUGAGGAUCACCCAUGUCAAAAGAAUCGAGGAUAUGGUAAGUAAUAAGAGAAUCUAGAAGGCGAAGUUG [Altered State 1-24 - Jieux - Same State 1] (puzzle: Same State 1)”, the “apparent KD of MS2 coat protein” value [2] was 42.7 nM, the “apparent KD of MS2 coat protein” value [3] was 55.9 nM and the “apparent KD of MS2 coat protein” value [4] was 60.9 nM.

In the case of “UGUUAACAUGAGGAUCACCCAUGUCAAAUGAAUCGAGGAUAUGGGAAGUAAUAAGAUAAACUAGAAGGCGAAGUUG [Altered State 1-1 - Jieux - Same State 1] (puzzle: Same State 1)”, the “apparent KD of MS2 coat protein” value [2] is reported as 358 nM, the “apparent KD of MS2 coat protein” value [3] is reported as 106 nM and the “apparent KD of MS2 coat protein” value [4] is reported as 195 nM.

With “UGUUAACAUGAGGAUCACCCAUGUCAAAUGAAUGAAGGAUAUGGAAAGUAAUAAGAUGAACUAGAAGGUCAAGAUG [Altered State 1-22 - Jieux - Same State 1] (puzzle: Same State 1)” the “apparent KD of MS2 coat protein” value [2] was 48.4 nM, the “apparent KD of MS2 coat protein” value [3] was 51.9 nM and the “apparent KD of MS2 coat protein” value [4] was 49.8 nM.

In the case of “UGUUGUAUUACAGGAUAUCUAGUAAUUUUAUUUAGAGAAGGGUAUUCACAUGAGGAUCACCCAUGUAUAUACGAGGAAGUUGUG [JMF's solution 35] (Eterna round: R96, puzzle: Same State NG 1)”, the “apparent KD of MS2 coat protein” value [1] is reported as 27.8 nM.

In the case of “UGUUGUAUUACAGGAUAUCUAUGAUUGUUAUUUAGAGAAGGGUAUUCACAUGAGGAUCACCCAUGUAUAUACGAGGAAGUUGUG [JMF's solution 60] (Eterna round: R96, puzzle: Same State NG 1)”, the “apparent KD of MS2 coat protein” value (input ligand: FMN 200 uM) is reported as 52.3 nM, the “apparent KD of MS2 coat protein” value [1] is reported as 36.7 nM and the “apparent KD of MS2 coat protein” value (input ligand: none) is reported as 50.6 nM.

In the case of “UGUUGUAUUACAGGAUAUCUAUGAUUUUUAUAUAGAGAAGGGUAUUCACAUGAGGAUCACCCAUGUAUAUACGAGGAAGUUGUG [JMF's solution 68] (Eterna round: R96, puzzle: Same State NG 1)”, the “apparent KD of MS2 coat protein” value [1] is reported as 39.6 nM.

With “UGUUGUAUUACAGGAUAUCUAUUGUUUUGAUUUAGAGAAGGGUAUUCACAUGAGGAUCACCCAUGUAUAUACGAGGAAGUUGUG [JMF's solution 77] (Eterna round: R96, puzzle: Same State NG 1)” the “apparent KD of MS2 coat protein” value (input ligand: FMN 200 uM) was 64.1 nM, the “apparent KD of MS2 coat protein” value [1] was 40.3 nM and the “apparent KD of MS2 coat protein” value (input ligand: none) was 50.6 nM.

With “UGUUGUAUUACAGGAUAUCUAUUGUUUUUAAUUAGAGAAGGGUAUUCACAUGAGGAUCACCCAUGUAUAUACGAGGAAGUUGUG [JMF's solution 81] (Eterna round: R96, puzzle: Same State NG 1)” the “apparent KD of MS2 coat protein” value [1] was 37.6 nM.

For “UGUUUGUUGUGAGGAUAUACAUACACCUUACAUGAGGAUCACCCAUGUUGUAAUUUUGAUAGUUAGUAGAAGGCACUUGGUUAU [JR_SSNG2_Sub045] (Eterna round: R96, puzzle: Same State NG 2)”, the “apparent KD of MS2 coat protein” value (input ligand: FMN 200 uM) was 35.2 nM, the “apparent KD of MS2 coat protein” value [1] was 64.3 nM and the “apparent KD of MS2 coat protein” value (input ligand: none) was 71.5 nM.

“UGUUUGUUGUGAGGAUAUACAUACACCUUACAUGAGGAUCACCCAUGUUGUUACUUUGAUAGUUAGUAGAAGGCACUUGGUUAU [JR_SSNG2_Sub047] (Eterna round: R96, puzzle: Same State NG 2)” was tested, and the “apparent KD of MS2 coat protein” value (input ligand: FMN 200 uM) was 94.9 nM, the “apparent KD of MS2 coat protein” value [1] was 91.6 nM and the “apparent KD of MS2 coat protein” value (input ligand: none) was 140 nM.

With “UUAAAGAAUUAAGGAUAUUGAAUACAUAUGUUUAACAUGAGGAUCACCCAUGUGGGUUGCGGUAUCGAGAAGGUAAAAUAAUAG [Mat - Same State NG 2 - JL mod - D5] (Eterna round: R96, puzzle: Same State NG 2)” the “apparent KD of MS2 coat protein” value (input ligand: FMN 200 uM) was 108 nM, the “apparent KD of MS2 coat protein” value [1] was 106 nM and the “apparent KD of MS2 coat protein” value (input ligand: none) was 118 nM.

For “UUAAUGAAGUAAGGAUAUACAUGAGGAUUUCUCGUAGAAGGUACUAUACAUGAGGAUCACCCAUGUGCCGGUCAGAAGACUGGA [Mat - Same State NG 1 - JL mod - D10] (Eterna round: R96, puzzle: Same State NG 1)”, the “apparent KD of MS2 coat protein” value [1] was 301 nM.

In the case of “UUAAUGAUGAUAGGAUAUACAUGAGGAAUUCUCGUAGAAGGAUCAUGACAUGAGGAUCACCCAUGUAUCGCUCCGUAGAGCGUA [JL SSNG1 1.14] (Eterna round: R96, puzzle: Same State NG 1)”, the “apparent KD of MS2 coat protein” value (input ligand: FMN 200 uM) is reported as 934 nM, the “apparent KD of MS2 coat protein” value [1] is reported as 233 nM and the “apparent KD of MS2 coat protein” value (input ligand: none) is reported as 676 nM.

— the supplement of paper PMC9170038
